The text below walks through data of US20140087995A1 (published 2014).

Numbered stars: 1 amine (or outer) side, 2 acyl side, 3 side chain; on linkers, the order of the positions; unused ones are H or OH. Bridge positions count the residues as written; N and C are the ends. Side chains are listed from the residue outwards. Ends that are not written are not given here. * marks the point of attachment. C20 diacid = O=C(O)CCCCCCCCCCCCCCCCCCC(=O)*; γGlu = O=C(O)[C@H](CCC(=O)[*:2])N[*:1]

For this assay, the target named is T1, human calcitonin receptor (human, UniProt P30988 25-474).
T1 sequence (looked up): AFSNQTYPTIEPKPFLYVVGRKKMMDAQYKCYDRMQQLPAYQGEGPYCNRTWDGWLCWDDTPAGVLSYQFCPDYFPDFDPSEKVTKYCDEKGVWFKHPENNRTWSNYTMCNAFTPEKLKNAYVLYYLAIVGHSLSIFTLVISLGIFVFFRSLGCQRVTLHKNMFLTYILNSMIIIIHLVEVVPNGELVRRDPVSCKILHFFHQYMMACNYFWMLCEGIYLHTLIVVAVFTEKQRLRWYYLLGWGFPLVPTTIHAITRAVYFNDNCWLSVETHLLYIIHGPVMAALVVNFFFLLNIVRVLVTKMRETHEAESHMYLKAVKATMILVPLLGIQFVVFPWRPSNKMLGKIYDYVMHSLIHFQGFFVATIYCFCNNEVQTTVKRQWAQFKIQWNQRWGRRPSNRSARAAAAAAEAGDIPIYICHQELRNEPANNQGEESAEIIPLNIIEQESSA
The experiment in a line: cell-based or functional assay.

B1: N^ε1-[(4S)-4-carboxy-4-[[(4S)-4-carboxy-4-(19-carboxynonadecanoylamino)butanoyl]amino]butanoyl]-[Ser14,Arg17,Pro21,Pro27,Pro34,Glu35]-h-amylin (peptide)
peptide: K([γGlu-γGlu-C20 diacid])CNTATCATQRLASFLRHSSPNFGAIPSSTNVGPETY-NH2
modifications: disulfide 2-7; N-terminus assumed
SMILES: CC[C@H](C)[C@H](NC(=O)[C@H](C)NC(=O)CNC(=O)[C@H](Cc1ccccc1)NC(=O)[C@H](CC(N)=O)NC(=O)[C@@H]1CCCN1C(=O)[C@H](CO)NC(=O)[C@H](CO)NC(=O)[C@H](Cc1c[nH]cn1)NC(=O)[C@H](CCCNC(=N)N)NC(=O)[C@H](CC(C)C)NC(=O)[C@H](Cc1ccccc1)NC(=O)[C@H](CO)NC(=O)[C@H](C)NC(=O)[C@H](CC(C)C)NC(=O)[C@H](CCCNC(=N)N)NC(=O)[C@H](CCC(N)=O)NC(=O)[C@@H](NC(=O)[C@H](C)NC(=O)[C@@H]1CSSC[C@H](NC(=O)[C@@H](N)CCCCNC(=O)CC[C@H](NC(=O)CC[C@H](NC(=O)CCCCCCCCCCCCCCCCCCC(=O)O)C(=O)O)C(=O)O)C(=O)N[C@@H](CC(N)=O)C(=O)N[C@@H]([C@@H](C)O)C(=O)N[C@@H](C)C(=O)N[C@@H]([C@@H](C)O)C(=O)N1)[C@@H](C)O)C(=O)N1CCC[C@H]1C(=O)N[C@@H](CO)C(=O)N[C@@H](CO)C(=O)N[C@H](C(=O)N[C@@H](CC(N)=O)C(=O)N[C@H](C(=O)NCC(=O)N1CCC[C@H]1C(=O)N[C@@H](CCC(=O)O)C(=O)N[C@H](C(=O)N[C@@H](Cc1ccc(O)cc1)C(N)=O)[C@@H](C)O)C(C)C)[C@@H](C)O
notes: also called compound 120
With B1, the “hCTR funct. EC50 (pM)” value was determined as 887 pM.

B2: N^-1-[(4S)-4-carboxy-4-(19-carboxynonadecanoylamino)butanoyl]-Gly[Arg1,His14,Arg17,Pro21,Pro27,His34]-h-amylin (peptide)
peptide: {C20 diacid-γGlu}-GRCNTATCATQRLAHFLRHSSPNFGAIPSSTNVGHNTY-NH2
modifications: disulfide 3-8
SMILES: CC[C@H](C)[C@H](NC(=O)[C@H](C)NC(=O)CNC(=O)[C@H](Cc1ccccc1)NC(=O)[C@H](CC(N)=O)NC(=O)[C@@H]1CCCN1C(=O)[C@H](CO)NC(=O)[C@H](CO)NC(=O)[C@H](Cc1c[nH]cn1)NC(=O)[C@H](CCCNC(=N)N)NC(=O)[C@H](CC(C)C)NC(=O)[C@H](Cc1ccccc1)NC(=O)[C@H](Cc1c[nH]cn1)NC(=O)[C@H](C)NC(=O)[C@H](CC(C)C)NC(=O)[C@H](CCCNC(=N)N)NC(=O)[C@H](CCC(N)=O)NC(=O)[C@@H](NC(=O)[C@H](C)NC(=O)[C@@H]1CSSC[C@H](NC(=O)[C@H](CCCNC(=N)N)NC(=O)CNC(=O)CC[C@H](NC(=O)CCCCCCCCCCCCCCCCCCC(=O)O)C(=O)O)C(=O)N[C@@H](CC(N)=O)C(=O)N[C@@H]([C@@H](C)O)C(=O)N[C@@H](C)C(=O)N[C@@H]([C@@H](C)O)C(=O)N1)[C@@H](C)O)C(=O)N1CCC[C@H]1C(=O)N[C@@H](CO)C(=O)N[C@@H](CO)C(=O)N[C@H](C(=O)N[C@@H](CC(N)=O)C(=O)N[C@H](C(=O)NCC(=O)N[C@@H](Cc1c[nH]cn1)C(=O)N[C@@H](CC(N)=O)C(=O)N[C@H](C(=O)N[C@@H](Cc1ccc(O)cc1)C(N)=O)[C@@H](C)O)C(C)C)[C@@H](C)O
notes: 38 residues; also called compound 100
For B2, the “hCTR funct. EC50 (pM)” value was found to be 1730 pM.
